From the supplement of paper PMC12764529
± gives the half width of the 95% confidence interval.

How the values were obtained:
[1] = folding stability dG unfold from trypsin proteolysis; higher = more stable
Summary of the method: (§1)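 Unfolding free energy was derived, per protease or combined, by relating Bayesian-fitted K50 values from sequencing counts to a sequence-predicted unfolded-state K50 and a shared folded-state K50. The underlying digests exposed cysteine-free mini-proteins under 80 residues, in a PA-tagged cDNA display construct, to trypsin and chymotrypsin at 11 threefold-diluted concentrations and to a no-protease condition. A filter kept only designs with AlphaFold2 dimer inter-PAE above 15.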

[2] = folding stability dG unfold from chymotrypsin proteolysis; higher = more stable
Summary of the method: as §1

[3] = folding stability dG unfold (combined trypsin and chymotrypsin); higher = more stable
Summary of the method: as §1

Row | Sequence | folding stability dG unfold [1] [kcal/mol] | folding stability dG unfold [2] [kcal/mol] | folding stability dG unfold [3] [kcal/mol]
1 | SAGGKMVKIEITLSPEEIEKIKEKLEEETGLEVEIKVEKNENGEVKLIITFKSEEAAKKALEKLGIESAGGS [r16_172_TrROS_Hall] | 2.63 ± 0.16 | 3.7 ± 0.15 | 3.42 ± 0.14
2 | SAGGKPGKWRKVEIWLPPDMPDIIEEIAKNWPNVNVDTERHPENGWYPVTGYFPDPNGKPVAKIHIWSAGGS [r8_267_TrROS] | 0.185 ± 0.064 | 0.933 ± 0.17 | 0.65 ± 0.2
3 | SAGGKPKEIVIEVELEVVEVNGEKYLVLKAKIIDKETNEVYEVTAVFNLKTGKLVGIEVKKLTVEELKSAGG [r13_772_TrROS_Hall] | 3.16 ± 0.25 | 4.9 ± 0.23 | 4.66 ± 0.37
4 | SAGGKPKVEIKIEEIPVDGELYLVIEIKVEEKNATLTLTLPNGEEITMEFDEETGTVRIIARIPLEDLSAGG [r13_380_TrROS_Hall] | 3.24 ± 0.29 | 3.09 ± 0.15 | 3.12 ± 0.22
5 | SAGGKPLEPKIEVEVIPLPSGERVITLRVEVPPNDPLKIKFPGLKKEVEFPGDDEVEFRVVVPPDSFSAGGS [r16_56_TrMRF] | 0.662 ± 0.1 | 0.631 ± 0.1 | 0.69 ± 0.14
6 | SAGGKPTQTITITLKDGRTLTIKVGQTVTITLDNGKTITVTVKDATITVKDGKVTITVNGKTYTFTVKSAGG [r13_643_TrROS_Hall] | 3.45 ± 0.24 | 4.73 ± 0.13 | 4.62 ± 0.23
7 | SAGGKPVRIRSSNGWPIEINPEDGTIKVEFPGYEVEFEVKEDGTIQFQIRNPKDGKPIMPMTLQIEKSAGGS [r16_760_TrROS] | 0.694 ± 0.049 | 1.07 ± 0.093 | 0.98 ± 0.072
8 | SAGGKSVKVSLPKEALKKAKENEKVVITLPDGTKREAILVRGGDSVPVFVVNPDNPEEAEYVGEATVGSAGG [r13_745_TrMRF] | -0.503 ± 0.16 | 0.134 ± 0.042 | -0.0228 ± 0.09
9 | SAGGKTIEIEVKVPPGMTEEEVAKKLAEELAKELEKKTGKEIKIEIEKVEKLPNGERKVRIKIEVKPSAGGS [r8_156_TrROS_Hall] | 1.42 ± 0.035 | 1.8 ± 0.18 | 1.74 ± 0.2
10 | SAGGKTIEVEIVVPPDMTPEEVAARLAAALPPGAKIRVEEVREVTGPDGRKYRIFKVTIYDEKTGEPLSAGG [r13_12_TrROS_Hall] | 3.61 ± 0.14 | 2.99 ± 0.072 | 3.12 ± 0.16
11 | SAGGKTIMHMYMNPNGWFIRAKIKLDPDGKWKITDVEIYPMEMKYEDPNGKPREMPMFMIKIRIKPDSAGGS [r8_270_TrROS] | 3.03 ± 0.084 | 4.26 ± 0.046 | 3.78 ± 0.092
12 | SAGGKTISIEFYMPPGEPPPSIEEIAKELFPGYKDIKIKNIEIEDVEPDPDNGMKYVRVSFTIEVEPPSAGG [r13_10_TrROS] | 3.25 ± 0.27 | 3.42 ± 0.23 | 3.39 ± 0.25
13 | SAGGKTIVIELTPEEVEELLKKLLEELKKKAEENPDAKITIVITTPDGRTYTITIDLKTGKITIEELPSAGG [r13_216_TrROS_Hall] | 2.39 ± 0.051 | 3.93 ± 0.13 | 3.43 ± 0.1
14 | SAGGKTIWIPMPPGDPEKFAKNIADEILEEAQKQGENVDVKITIQYPDGQYMRITIDGNGKIDKIVPWSAGG [r13_965_TrROS] | 0.333 ± 0.2 | 0.652 ± 0.31 | 0.636 ± 0.31
15 | SAGGKTKVIVVKVKPEMTVEEIAKKLAEELKKKGKKVKVEVKVIEKLPNGELYVKVTVKDGKLTIEPSAGGS [r8_7_TrROS_Hall] | 1.12 ± 0.085 | 1.42 ± 0.073 | 1.35 ± 0.19
16 | SAGGKTVPIMFPFDSPDQIEEIIEELAKPGFDDVKPERIEPEPPPDGNYYFPVRIEVDPKNGKIEITFSAGG [r13_174_TrROS] | 0.0445 ± 0.13 | 0.185 ± 0.19 | -0.0243 ± 0.29
17 | SAGGKTVTIKAKSLEDALKAIEALPSVDKVTITVEVNGKTVTITLTVKPPPPVKYELDKNGKLVKKEKSAGG [r13_183_TrROS_Hall] | 0.794 ± 0.05 | 1.56 ± 0.086 | 1.28 ± 0.25
18 | SAGGKTVVIEAESLEEALAAIEALPPDVKKVVIFNKETGVLVEVTVDPKTGEIKEIKVYKIDPEKGKLSAGG [r13_945_TrROS_Hall] | 1.22 ± 0.09 | 2.861 ± 0.026 | 2.54 ± 0.12
19 | SAGGKTVVLEFDSVEDLKAALPPGAEVEIVVIREDGSKKTITVPAKDLKLELKPGEKYRVVIKVKPKKSAGG [r13_461_TrROS_Hall] | 1.5 ± 0.09 | 2.49 ± 0.084 | 2.17 ± 0.12
20 | SAGGKTYKIKVTVEVKNENGETEKKEYVIEVKENKTPEEIAEELKKKLGVEKVEIVDPKTGKKYTIELSAGG [r13_663_TrROS_Hall] | 1.9 ± 0.052 | 3.185 ± 0.029 | 2.83 ± 0.084
21 | SAGGKVSVEVRGNGPGSYVALWLPGPGTVIAREFEDGDRFDDLPEDAEPSRVVFFGYDGVPEEFELGSAGGS [r8_487_TrMRF] | 0.32 ± 0.032 | 0.487 ± 0.071 | 0.449 ± 0.043

Row | Sequence | folding stability dG unfold [1] [kcal/mol] | folding stability dG unfold [2] [kcal/mol] | folding stability dG unfold [3] [kcal/mol]
22 | SAGGKVVKTKEEAEKLVKEGKAEVVSVKKVKVPVNGKEKEVEVLEVKIKDKKTKKEKTIVLTKEQLKSAGGS [r16_271_TrROS_Hall] | -0.319 ± 0.36 | -0.863 ± 0.27 | -0.894 ± 0.78
23 | SAGGKVVVLTFPKDNPEEVREALAKLPNVVRVEVEKVNDRYLAVAELEGELAVFVSLPDGRYVLLVLGSAGG [r13_907_TrMRF] | 2.36 ± 0.091 | 2.994 ± 0.021 | 2.73 ± 0.043
24 | SAGGKWKPIGKFEFTLPDGVKVTVTVEENPPLELKITAEVEIYVPPPKPPVPPLGPEEVKKWLEENKSAGGS [r16_6_TrMRF] | 1.87 ± 0.12 | 1.86 ± 0.05 | 1.8 ± 0.2
25 | SAGGKYTFTPAPPNSESEVVKKAEELKKKLAEEPGVDKKIEIEIKPSPDGSLTIKVTFSTGTYDAAASAGGS [r16_356_JUSTAS] | 0.514 ± 0.027 | 1.32 ± 0.094 | 0.942 ± 0.12
26 | SAGGKYVIIMFPLPPNLEVEIEYPGVPVHRTPNGSLMFQIPPNEPIRIKIKNPNGEEEELPINIFPLSAGGS [r8_72_TrROS] | 1.77 ± 0.1 | 2.33 ± 0.1 | 2.2 ± 0.2
27 | SAGGKYVMFPFDSPEDLKDLLPPGYPVEIHMMPPKGKHRTRTFTPDEIKLELPPGENFYFMIKVKPPDSAGG [r13_461_TrROS] | 1.55 ± 0.16 | 1.94 ± 0.33 | 1.74 ± 0.2
28 | SAGGLAKAVAEELGLPELKVKEVRFAPDPAGPGLTVEVVFELPDGSYLRVEVRFHPDRIEIKAVPLPPSAGG [r19_392_TrMRF] | 2.09 ± 0.093 | 3.65 ± 0.15 | 3.23 ± 0.15
29 | SAGGLEEIAEKIAEELKKKGYKAEIKEVVKPPTNEVVIKYTVTYKDKNEIIEEEEKEITFKLPPGLESAGGS [r8_102_JUSTAS] | -0.556 ± 0.16 | 0.741 ± 0.14 | 0.377 ± 0.16
30 | SAGGLEEKILEAVKNMSPEEPVVEREVELPDGKLKVTVTRDGLPYTVTITRTNPDGTTTTTTTTILLSAGGS [r16_642_JUSTAS] | 2.46 ± 0.16 | 2.37 ± 0.046 | 2.34 ± 0.12
31 | SAGGLEELAKEIADDLQKRNPDMNIEVQVEVHEYKIPPGQKMRHPDGEEKEVPPGQKVYMFTIRVTPSAGGS [r16_357_TrROS] | 0.758 ± 0.11 | 1.26 ± 0.27 | 1.17 ± 0.21
32 | SAGGLEIDTSDGNVKVTKVSTKTTVEKDPTNPDRYRIITSKEIKTEPVKPPDVKEGPPIGLNNPELLSAGGS [r16_395_JUSTAS] | 0.475 ± 0.2 | 0.418 ± 0.47 | 0.165 ± 0.49
33 | SAGGLEIEVFNEKGEPVEVRLRRKEDDTLELEVRFRDASGREYRARATVRVKETEIELGEVDEWEELESAGG [r13_451_TrMRF] | 2.19 ± 0.09 | 1.84 ± 0.082 | 2.21 ± 0.26
34 | SAGGLENLENFELVETLTVKLPNGDKPVTLTLYRHPDGPAENVTSYEGKKYVFVVTDDSIEFFEGGTSAGGS [r16_711_TrMRF] | 0.0263 ± 0.044 | 1.24 ± 0.16 | 0.81 ± 0.15
35 | SAGGLGTDSTVPTLTLSVPVLVPTADGSPRELTVRVTIRAPVRLNPPTGELEIGDVEVSVEVFDPSLLSAGG [r13_312_TrMRF] | 3.03 ± 0.11 | 3.73 ± 0.11 | 3.37 ± 0.13
36 | SAGGLIEKLKELGFEIVSVEEREETLPNGKKVRTVKITVKLPNGELVKIEVRVLPNGEVIIKIEVKKPSAGG [r13_818_TrROS_Hall] | 3.72 ± 0.15 | 3.17 ± 0.89 | 3.55 ± 0.27
37 | SAGGLKIPVGSAEDALKAFEAIEEPVLVRTKDRKFVRELKLEDIKELVEKGVEFEFVLPSELPEEERKESAG [r5_677_TrMRF] | 0.574 ± 0.07 | 0.573 ± 0.21 | 0.566 ± 0.39
38 | SAGGLLPALLAPGFRKPPELPLVVVEAPIEEAVALAKENPSLGVLLVRVGGKLYLIDPKTGKVAPLGSAGGS [r16_214_TrMRF] | 0.767 ± 0.018 | 1.6 ± 0.033 | 1.32 ± 0.056
39 | SAGGLLVVLPPDLTPEELREKALELAELARKAGDFEVERIELVRDEETDRPYAVLVIRDPRTGKILVASAGG [r13_669_TrMRF] | 1.39 ± 0.014 | 1.05 ± 0.062 | 1.23 ± 0.042
40 | SAGGLNINLPPGQEIELTLQVTHLFNGGNGDFGSMTHTYEIPIKIKPIPPVPKPEVERDPDGNYKVEDSAGG [r13_401_TrROS] | -0.0612 ± 0.076 | 0.358 ± 0.26 | 0.296 ± 0.28
41 | SAGGLPELLKALGLPVTSVRSVPVLLPGGRPALVTFVEFEDPEGERYRLVVVRLPNGEVLVRVERLDPSAGG [r13_818_TrMRF] | 3.39 ± 0.15 | 4.9 ± 0.12 | 4.53 ± 0.1
42 | SAGGLPPEIKVEISFTPDPATGKWRGTVTAFDPVTGKTVTVPVTSDTPEELRARLEAAAAAVAAALASAGGS [r8_480_JUSTAS] | 3.03 ± 0.098 | 4.36 ± 0.12 | 4.08 ± 0.14
